For two substances, stoichiometry N results are on record in paper PMC8011978.

One may read the stoichiometry N as a count of units in the complex or per binding partner.

In assay [1] the target is LAdV-2 protein LH3 (lizard atadenovirus LAdV-2). In words: cryo-EM structure.
Assay [2] deals with LAdV-2 penton base protein (lizard atadenovirus LAdV-2). In words: cryo-EM structure.

In turn, LAdV-2 protein LH3 (natural protein) yielded a stoichiometry N in assay [1] of 3.

Take “LAdV-2 penton base protein (natural protein)”: the stoichiometry N in assay [2] was 5.
